Assay results from publication PMC4157346.

Legend:
[1] = target: CXCR1 receptor on stably transfected RBL-2H3 cells (UniProt P25024)
[2] = target: CXCR1 receptor on stably transfected RBL-2H3 cells (UniProt P25024); assay: radioligand binding
[3] = target: CXCR2 receptor on stably transfected RBL-2H3 cells (human) (UniProt P25025); assay: radioligand binding

Row | Substance | EC50 of Ca2+ release, CXCR1-transfected RBL-2H3 cells [1] | Kd [2] | Kd [3]
1 | CXCL8 G31V mutant (ligand) | 22.9 nM |  | 
2 | CXCL8 P32G mutant (ligand) | > 1000 nM |  | 
3 | CXCL8 P32A mutant (ligand) | 10.7 nM |  | 
4 | CXCL8 wild type (from UniProt P10145 21-99) (ligand) | 2.5 nM | 4.1 nM | 5.4 nM
